In article PMC6242907, “Molecular basis of maintaining an oxidizing environment under anaerobiosis by soluble fumarate reductase” (Nature Communications, 2018):

Experiments:
Assay in all cases: purified protein
Assay type in all cases: biochemical, Saccharomyces cerevisiae
purified protein [1] = substrate: Cc1cc2c(cc1C)N(C[C@H](O)[C@H](O)[C@H](O)CO)c1[nH]c(=O)[nH]c(=O)c1N2; conditions: printed as riboflavin, reduced in situ by excess sodium dithionite; fumarate as acceptor, anaerobic, PBS, 1 mM EDTA
purified protein [2] = substrate: Cc1cc2c(cc1C)N(C[C@H](O)[C@H](O)[C@H](O)COP(=O)(O)O)c1[nH]c(=O)[nH]c(=O)c1N2; conditions: printed as FMN, reduced in situ by excess sodium dithionite; fumarate as acceptor, anaerobic, PBS, 1 mM EDTA
purified protein [3] = substrate: Cc1cc2c(cc1C)N(C[C@H](O)[C@H](O)[C@H](O)COP(=O)(O)OP(=O)(O)OC[C@H]1O[C@@H](n3cnc4c(N)ncnc43)[C@H](O)[C@@H]1O)c1[nH]c(=O)[nH]c(=O)c1N2; conditions: printed as FAD, reduced in situ by excess sodium dithionite; fumarate as acceptor, anaerobic, PBS, 1 mM EDTA

B1: Osm1 (Saccharomyces cerevisiae S288C) (protein)
chain: SMKQPVVVIGSGLAGLTTSNRLISKYRIPVVLLDKAASIGGNSIKASSGINGAHTDTQQNLKVMDTPELFLKDTLHSAKGRGVPSLMDKLTKESKSAIRWLQTEFDLKLDLLAQLGGHSVPRTHRSSGKLPPGFEIVQALSKKLKDISSKDSNLVQIMLNSEVVDIELDNQGHVTGVVYMDENGNRKIMKSHHVVFCSGGFGYSKEMLKEYSPNLIHLPTTNGKQTTGDGQKILSKLGAELIDMDQVQVHPTGFIDPNDRENNWKFLAAEALRGLGGILLHPTTGRRFTNELSTRDTVTMEIQSKCPKNDNRALLVMSDKVYENYTNNINFYMSKNLIKKVSINDLIRQYDLQTTASELVTELKSYSDVNTKDTFDRPLIINAFDKDISTESTVYVGEVTPVVHFTMGGVKINEKSQVIKKNSESVLSNGIFAAGEVSGGVHGANRLGGSSLLECVVFGKTAADNIAKLY
notes: residues 32-501, N-terminal His6 tag and thrombin site in pET28a, E. coli BL21(DE3); tag removed by trypsin for crystals
Q: For B1, which Km (purified protein [1]) is on record?
A: The Km was 9.3745 (±4.991) µM.

Q: And the Km (purified protein [2])?
A: Its Km is 5.847 (±2.0065) µM.

Q: And the Km (purified protein [3])?
A: Its Km is 2.858 µM.
